# Results reported in patent publication CN114560932A (MILITARY MEDICINE RES INSTITUTE OF CHINESE PEOPLE …, dated 2022).
# B1: 人鼠嵌合全抗体mhS1 (antibody, V domains shown)
# VH: QVQLKESGAELVKPGASVKLSCTASGFNIKDTYIHWMKQRPEQGLEWIGRIDPANGHSIYDPKFQGKATITADASSNAAYLQLSSLTSEDTAVYYCARSYGYEKRYAMDYWGQGTSVTVSS
# VL: DIVMTQTTSSLSASLGDRVTISCSASQGISNYLNWYQQKPDGTVKVLIYYTSTLHSGVPSRFSGSGSGTDYSLTISNLEPEDIATYYCQQYSKLPWTFGGGTKLEMKR
# Experiments:
# [1] = target: 鼠疫菌F1重组蛋白 (Yersinia pestis, UniProt P26948 22-170)
# [2] = target: 鼠疫杆菌V重组蛋白 (Yersinia pestis, UniProt P0C7U7 1-326); experiment: ELISA, antigen coated at 2 μg/mL, mhS1 at 20 μg/mL, goat anti-human IgG-HRP
# 鼠疫杆菌V重组蛋白, sequence (P0C7U7 whole entry): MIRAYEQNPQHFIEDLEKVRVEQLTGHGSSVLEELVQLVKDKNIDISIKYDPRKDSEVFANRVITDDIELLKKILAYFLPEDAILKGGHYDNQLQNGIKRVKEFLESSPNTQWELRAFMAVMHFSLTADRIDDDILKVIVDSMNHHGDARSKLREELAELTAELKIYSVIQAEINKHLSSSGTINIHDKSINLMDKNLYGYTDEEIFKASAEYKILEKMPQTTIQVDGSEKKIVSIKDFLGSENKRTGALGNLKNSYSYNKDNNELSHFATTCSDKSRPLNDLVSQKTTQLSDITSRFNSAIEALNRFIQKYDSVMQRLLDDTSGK
# 鼠疫菌F1重组蛋白, sequence (P26948 22-170 limits assumed): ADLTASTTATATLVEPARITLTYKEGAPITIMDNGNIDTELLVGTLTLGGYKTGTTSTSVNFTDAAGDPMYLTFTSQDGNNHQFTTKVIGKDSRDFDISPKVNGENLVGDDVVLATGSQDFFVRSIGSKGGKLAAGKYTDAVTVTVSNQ
binder,measurement,setting,value
B1,EC50,[1],0.0114 nM
same,binding result,[2],no binding (tested: 20μg/mL)
